Measurements taken from patent US20120053125.

Key:
[1] = system: T1, human I-1 (S67D/T75D)
T1 sequence: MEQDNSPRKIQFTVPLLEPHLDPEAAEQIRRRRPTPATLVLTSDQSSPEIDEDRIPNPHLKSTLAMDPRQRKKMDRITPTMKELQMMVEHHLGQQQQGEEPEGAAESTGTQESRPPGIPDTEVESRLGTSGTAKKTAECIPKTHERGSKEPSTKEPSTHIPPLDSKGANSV

[2] = system: human I-1 (S67A), unphosphorylated
[3] = system: human I-1 (S67A/T75A)
[4] = system: human I-1 (T75A), unphosphorylated
[5] = system: human phosphatase inhibitor-1 (I-1) wild type, dephosphorylated

| Substance | 32P incorporation upon PKA incubation, decrease against wild-type [1] | 32P incorporated per protein at steady state (20-45 min), percent of wild type [2] | stoichiometry of phosphorylation at 45 min [2] | 32P incorporation upon PKC-α incubation [3] | 32P incorporated per protein at 45 min, percent of wild type [4] | stoichiometry of phosphorylation at 45 min [4] | stoichiometry of phosphorylation at 45 min [5] |
| --- | --- | --- | --- | --- | --- | --- | --- |
| Protein Kinase A (PKA, cAMP-dependent protein kinase), Upstate Biotechnology | the double mutant incorporated 29% less radioactivity than the wild-type | – | – | – | – | – | – |
| Protein Kinase C alpha (PKC-α), Upstate Biotechnology | – | I-1 (S67A) incorporated 40±8.6% of the radioactivity levels present in wild types (100%) | the incorporation of Pi into I-1(S67A) and I-1(T75A) were reduced to 0.35 and 0.30 mol Pi/mol protein, respectively | mutation of both Ser-67 and Thr-75 to Ala abolishes ^32P-incorporation into I-1 | I-1 (T75A) incorporated 33.8±12.7% of the levels in wild type (100%) | the incorporation of Pi into I-1(S67A) and I-1(T75A) were reduced to 0.35 and 0.30 mol Pi/mol protein, respectively | I-1 wild-type was phosphorylated by PKC-α for 45 min to a stoichiometry of 0.88 mol Pi/mol protein |
